# B1: BAK (BCL-2 homologous antagonist/killer), endogenous in mouse liver mitochondria (natural protein, UniProt O08734 1-209, looked up)
# chain: MASGQGPGPPKVGCDESPSPSEQQVAQDTEEVFRSYVFYLHQQEQETQGAAAPANPEMDNLPLEPNSILGQVGRQLALIGDDINRRYDTEFQNLLEQLQPTAGNAYELFTKIASSLFKSGISWGRVVALLGFGYRLALYVYQRGLTGFLGQVTCFLADIILHHYIARWIAQRGGWVAALNFRRDPILTVMVIFGVVLLGQFVVHRFFRS
# Target: the molecule itself
# Assay: native gel or EMSA
protein,measurement,value
B1,stoichiometry N,2

# Reference: publication doi:10.1101/2024.10.16.618570 (bioRxiv, 2024)
